US20250207119A1 (VERRA THERAPEUTICS, published 2025)
Changes are numbered by the printed parent chain. Names and notes keep the numbering of the source.

B1: SEQ ID NO: 65 (R26A; R52A; C151S) (peptide)
chain: NPLNKYIRHYEGLSYNVDSLHQKHQAAKRAVSHEDQFLRLDFHAHGRHFNLAMKRDTSLFSDEFKVETSNKVLDYDTSHIYTGHIYGEEGSFSHGSVIDGRFEGFIQTRGGTFYVEPAERYIKDRTLPFHSVIYHEDDINYPHKYGPQGGSADHSVFERMRKYQMTGVEEVTQIPQAEHAANGPELLRK
B2: SEQ ID NO: 9 (mut3; K28A; K54A; E88A; E177A) (peptide)
chain: B1 chain with A26R, K28A, A52R, K54A, E88A, S151C
B3: SEQ ID NO: 62 (R29A; R55A; C151S; E177A) (peptide)
chain: B1 chain with A26R, R29A, A52R, R55A
B4: SEQ ID NO: 68 (R26A; R55A; C151S) (peptide)
chain: B1 chain with A52R, R55A
B5: SEQ ID NO: 34 (R29A; C151S; E177A) (peptide)
chain: B1 chain with A26R, R29A, A52R
B6: SEQ ID NO: 66 (SEQ ID NO: 1/SEQ ID NO: 2 hybrid; R26A; R55A; C151S; E177A) (peptide)
chain: B1 chain with R39L, H48Q, A52R, R55A, L73P, Q107K, V115I, T126I
B7: SEQ ID NO: 63 (R29K; R55K; C151S; E177A) (peptide)
chain: B1 chain with A26R, R29K, A52R, R55K
B8: SEQ ID NO: 5 (mut 1; K28A; K54A) (peptide)
chain: B1 chain with A26R, K28A, A52R, K54A, S151C, A177E
B9: Cys151-pegylated SEQ ID NO: 5 (K28A; K54A) (peptide)
chain: B1 chain with A26R, K28A, A52R, K54A, S151C, A177E
modifications: 10 kDa maleimide PEG on Cys151
B10: SEQ ID NO: 6 (mut2; K28A; K54A; C151S) (peptide)
chain: B1 chain with A26R, K28A, A52R, K54A, A177E
B11: C-term PEG-SEQ ID NO: 69 (R29K; R55K; E177A) (peptide)
chain: B1 chain with A26R, R29K, A52R, R55K, S151C
modifications: 10 kDa maleimide PEG on a cysteine; printed as 'C-term PEG' in Table 5 (the listed changes keep Cys151, and paragraph 162 speaks of a cysteine at C151, or the N- or C-terminus, for SEQ ID NOs: 69-71)
B12: C-term PEG-SEQ ID NO: 71 (R29K; R55K; C151S; E177A) (peptide)
chain: NPLNKYIRHYEGLSYNVDSLHQKHQRAKKAVSHEDQFLRLDFHAHGRHFNLRMKKDTSLFSDEFKVETSNKVLDYDTSHIYTGHIYGEEGSFSHGSVIDGRFEGFIQTRGGTFYVEPAERYIKDRTLPFHSVIYHEDDINYPHKYGPQGGSADHSVFERMRKYQMTGVEEVTQIPQAEHAANGPELLRKGSGSC
modifications: 10 kDa maleimide PEG on a cysteine at the C-terminus ('C-term PEG')
B13: SEQ ID NO: 64 (SEQ ID NO: 2 with R29K; R55K; C151S) (peptide)
chain: NPLNKYIRHYEGLSYNVDSLHQKHQRAKKAVSHEDQFLLLDFHAHGRQFNLRMKKDTSLFSDEFKVETSNKVLDYDTSHIYTGHIYGEEGSFSHGSVIDGRFEGFIKTRGGTFYIEPAERYIKDRILPFHSVIYHEDDINYPHKYGPQGGSADHSVFERMRKYQMTGVEEGARAHPEKHAASSGPELLRK
B14: SEQ ID NO: 67 (SEQ ID NO: 1/SEQ ID NO: 2 hybrid; R26A; R52A; C151S) (peptide)
chain: B13 chain with R26A, K29R, L39R, Q48H, R52A, K55R, K107Q, I115V, I126T
B15: N-term PEG-SEQ ID NO: 70 (R29K; R55K; C151S; E177A) (peptide)
chain: CGSNPLNKYIRHYEGLSYNVDSLHQKHQRAKKAVSHEDQFLRLDFHAHGRHFNLRMKKDTSLFSDEFKVETSNKVLDYDTSHIYTGHIYGEEGSFSHGSVIDGRFEGFIQTRGGTFYVEPAERYIKDRTLPFHSVIYHEDDINYPHKYGPQGGSADHSVFERMRKYQMTGVEEVTQIPQAEHAANGPELLRK
modifications: 10 kDa maleimide PEG on a cysteine at the N-terminus ('N-term PEG')

Experiments:
Experiment in all cases: cell-based or functional assay
[1] = target: Meprin from R & D Systems
[2] = target: T1, Human ADAM10 from R & D Systems (human, UniProt O14672 214-672)
T1 sequence (looked up): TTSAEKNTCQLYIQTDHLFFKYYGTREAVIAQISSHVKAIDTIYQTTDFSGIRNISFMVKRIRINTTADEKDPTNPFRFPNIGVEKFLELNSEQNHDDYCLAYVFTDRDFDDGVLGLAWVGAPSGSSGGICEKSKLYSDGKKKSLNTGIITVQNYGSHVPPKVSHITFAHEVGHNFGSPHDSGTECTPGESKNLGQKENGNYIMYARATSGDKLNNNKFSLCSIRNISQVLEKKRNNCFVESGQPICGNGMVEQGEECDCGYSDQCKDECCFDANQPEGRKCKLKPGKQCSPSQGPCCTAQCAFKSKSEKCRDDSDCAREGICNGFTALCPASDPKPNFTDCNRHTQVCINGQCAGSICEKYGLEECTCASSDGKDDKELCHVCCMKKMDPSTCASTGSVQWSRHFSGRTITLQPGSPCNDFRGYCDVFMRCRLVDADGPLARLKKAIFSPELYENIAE

MMP 9 = MMP 9 (UniProt P14780 20-707, limits assumed)
Chain of MMP 9 (P14780 20-707 limits assumed): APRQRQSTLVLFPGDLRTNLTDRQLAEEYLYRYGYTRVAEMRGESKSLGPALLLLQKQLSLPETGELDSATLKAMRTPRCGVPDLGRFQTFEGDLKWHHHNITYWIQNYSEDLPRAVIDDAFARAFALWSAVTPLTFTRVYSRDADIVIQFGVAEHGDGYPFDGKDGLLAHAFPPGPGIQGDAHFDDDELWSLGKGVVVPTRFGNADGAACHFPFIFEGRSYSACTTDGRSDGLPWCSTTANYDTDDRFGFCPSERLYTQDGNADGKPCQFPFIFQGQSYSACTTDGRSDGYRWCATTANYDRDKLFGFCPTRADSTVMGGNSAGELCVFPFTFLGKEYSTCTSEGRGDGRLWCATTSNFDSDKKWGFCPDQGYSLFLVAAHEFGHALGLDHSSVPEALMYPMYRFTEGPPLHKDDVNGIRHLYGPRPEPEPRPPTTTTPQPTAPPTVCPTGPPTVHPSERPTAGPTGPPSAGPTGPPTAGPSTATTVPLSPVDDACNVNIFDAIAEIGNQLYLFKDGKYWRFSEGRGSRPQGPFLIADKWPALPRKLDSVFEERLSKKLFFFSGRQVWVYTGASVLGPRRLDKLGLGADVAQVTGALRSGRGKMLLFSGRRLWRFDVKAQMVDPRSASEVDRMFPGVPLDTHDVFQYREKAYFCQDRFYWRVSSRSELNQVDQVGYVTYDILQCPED

MMP 3 = MMP 3 (UniProt P08254 18-477, limits assumed)
Chain of MMP 3 (P08254 18-477 limits assumed): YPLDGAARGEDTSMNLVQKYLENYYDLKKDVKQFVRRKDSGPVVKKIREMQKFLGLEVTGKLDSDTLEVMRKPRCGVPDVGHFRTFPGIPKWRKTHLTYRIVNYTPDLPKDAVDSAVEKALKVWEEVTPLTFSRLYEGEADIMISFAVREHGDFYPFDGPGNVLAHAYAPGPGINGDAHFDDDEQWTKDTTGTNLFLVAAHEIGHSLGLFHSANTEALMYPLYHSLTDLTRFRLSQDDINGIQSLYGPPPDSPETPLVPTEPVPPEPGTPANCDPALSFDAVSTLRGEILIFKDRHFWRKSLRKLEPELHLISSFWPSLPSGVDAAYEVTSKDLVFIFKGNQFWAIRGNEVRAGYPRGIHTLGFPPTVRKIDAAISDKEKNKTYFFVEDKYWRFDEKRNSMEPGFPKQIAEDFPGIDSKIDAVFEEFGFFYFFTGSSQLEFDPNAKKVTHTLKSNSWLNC

MMP 12 = MMP 12 (UniProt P39900 17-470, limits assumed)
Chain of MMP 12 (P39900 17-470 limits assumed): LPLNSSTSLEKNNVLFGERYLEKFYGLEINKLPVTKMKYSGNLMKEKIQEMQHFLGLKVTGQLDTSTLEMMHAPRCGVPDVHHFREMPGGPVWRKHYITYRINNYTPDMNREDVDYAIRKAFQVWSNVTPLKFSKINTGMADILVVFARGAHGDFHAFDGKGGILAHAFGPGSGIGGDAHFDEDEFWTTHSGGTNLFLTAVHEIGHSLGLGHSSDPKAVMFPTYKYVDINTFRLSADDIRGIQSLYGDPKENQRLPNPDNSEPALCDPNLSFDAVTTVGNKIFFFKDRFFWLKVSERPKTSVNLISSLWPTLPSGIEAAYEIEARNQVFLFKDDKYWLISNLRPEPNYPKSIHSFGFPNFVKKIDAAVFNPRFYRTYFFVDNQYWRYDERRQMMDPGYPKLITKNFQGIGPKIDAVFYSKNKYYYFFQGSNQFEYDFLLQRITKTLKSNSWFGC

MMP 14 = MMP 14 (UniProt P50281 21-538)
MMP 2 = target: T2, MMP 2 (UniProt P08253 30-660, limits assumed)
T2 sequence (looked up): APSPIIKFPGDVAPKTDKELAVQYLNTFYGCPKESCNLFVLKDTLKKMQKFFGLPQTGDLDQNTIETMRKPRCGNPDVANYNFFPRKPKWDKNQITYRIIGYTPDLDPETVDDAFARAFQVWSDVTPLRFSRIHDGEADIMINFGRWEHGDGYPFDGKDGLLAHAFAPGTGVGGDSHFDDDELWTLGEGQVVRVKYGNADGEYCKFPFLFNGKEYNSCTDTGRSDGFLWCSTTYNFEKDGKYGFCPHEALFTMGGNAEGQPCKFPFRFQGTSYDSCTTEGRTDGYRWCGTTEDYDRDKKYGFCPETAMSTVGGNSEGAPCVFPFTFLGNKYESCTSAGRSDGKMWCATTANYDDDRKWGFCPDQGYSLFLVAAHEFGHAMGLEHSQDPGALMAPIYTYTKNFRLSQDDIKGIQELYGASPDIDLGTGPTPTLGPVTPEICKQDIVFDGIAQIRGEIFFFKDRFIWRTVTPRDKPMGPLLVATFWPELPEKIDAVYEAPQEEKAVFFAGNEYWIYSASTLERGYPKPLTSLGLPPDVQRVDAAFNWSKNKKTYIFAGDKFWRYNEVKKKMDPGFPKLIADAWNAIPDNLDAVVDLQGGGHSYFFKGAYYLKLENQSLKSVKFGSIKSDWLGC

Binder	IC50 (nM), inhibition of meprin cleavage of the fluorescent substrate PEPDAB022 [1]	IC50 (nM), inhibition of ADAM10 cleavage of the fluorescent substrate PEPDAB064 [2]	further results
B1	289 nM	49 nM	
B2		142 nM	
B3	817 nM	110 nM	percent inhibition of MMP activity (PEPDAB008 substrate) (MMP 9): 0 % at 8 µM; percent inhibition of MMP activity (PEPDAB008 substrate) (MMP 3): 0 % at 8 µM; percent inhibition of MMP activity (PEPDAB008 substrate) (MMP 12): 0 % at 8 µM; percent inhibition of MMP activity (PEPDAB008 substrate) (MMP 14): 0 % at 8 µM; percent inhibition of MMP activity (PEPDAB008 substrate) (MMP 2): 0 % at 8 µM
B4		130 nM	
B5	289 nM	95 nM	
B6		234 nM	
B7	542 nM	35 nM	
B8		104 nM	
B9		83 nM	
B10		106 nM	
B11		71 nM	IC50, inhibition of meprin cleavage of the fluorescent substrate PEPDAB022 [1]: ~5000 nM
B12		19 nM	IC50, inhibition of meprin cleavage of the fluorescent substrate PEPDAB022 [1]: ~4000 nM
B13	682 nM	83 nM	
B14		147 nM	
B15		52 nM	IC50, inhibition of meprin cleavage of the fluorescent substrate PEPDAB022 [1]: ~7000 nM
